{
  "source": "patent US20190275087A1",
  "about": "“EXPANSION AND DIFFERENTIATION OF STEM CELLS” (Allergan Pharmaceuticals International Limited, priority 2018, published 2019)",
  "format_in_all_cases": "cell-based, Human",
  "key": {"MSCs [1]": {"test_system": "MSCs", "test": "MSC chondrogenic differentiation (glycosaminoglycans, Alcian Blue)", "conditions": "for decreased MSC chondrogenesis: tropoelastin addition during differentiation", "method": "(§1) MSCs were grown in various media formulations and on bare or protein-coated tissue culture wells for 7 days. The expanded cells were harvested, re-seeded on TCP, and differentiated into the adipogenic, osteogenic and chondrogenic lineages using the hMSC Adipogenic BulletKit®, hMSC Osteogenic BulletKit®, and hMSC Chondrogenic BulletKit® (Lonza), respectively, following the manufacturer's instructions.\nTo confirm chondrogenesis, cell pellets that had been induced for 14 days were washed with PBS, embedded in 1.5% (w/v) agar containing 0.85% (w/v) NaCl, and fixed with 10% (v/v) formalin overnight. The samples were dehydrated in 70% (v/v) ethanol for 1 day, then paraffin-embedded, sectioned, mounted onto slides, stained with Alcian Blue (pH 2.5) for 1 hour and counterstained with Nuclear Fast Red. Samples were imaged with an Olympus VS120 Slide Scanner."}, "MSCs [2]": {"test_system": "MSCs", "test": "MSC adipogenic differentiation (intracellular lipid, Oil Red O)", "method": "as §1\nTo confirm adipogenesis, cells that had been induced for 25 days were washed with PBS, fixed with 10% (v/v) formalin for 30 min, then washed with water. Cells were incubated with 60% (v/v) isopropanol for 5 min and stained for intracellular lipid droplets with 1.8 mg/mL Oil Red O in isopropanol for 20 min. Excess stain was removed with 5 washes of water."}, "MSCs [3]": {"test_system": "MSCs", "test": "MSC osteogenic differentiation (mineralized calcium, Alizarin Red S)", "method": "as §1\nTo confirm osteogenesis, cells that had been induced for 14 days were fixed and stained for mineralized calcium deposits with Alizarin Red S, as previously described. Cells from the adipogenic and osteogenic experiments were imaged with a Zeiss Axio Vert.A1 microscope using an AxioCam 105 colour camera."}, "MSCs [4]": {"test_system": "MSCs", "test": "MSC attachment to substrate-bound tropoelastin (EDTA inhibition, cation add-back)", "conditions": "cation-free environment", "method": "MSCs were seeded at a density of 1.5×10^5 cells/cm^2 on tropoelastin-coated wells in serum-free α-MEM containing 0-9 mM ethylenediaminetetraacetic acid (EDTA) (Sigma-Aldrich®). The cells were incubated for 1 hour at 37° C., then washed with PBS to remove unbound cells. Bound cells were fixed, stained and measured for absorbance at 570 nm as described for the proliferation assays. The percentage of cell attachment was determined relative to a set of standards with known cell numbers.\nMSCs were washed with cation-free PBS, centrifuged at 270 g for 5 min, and resuspended in cation-free PBS. The cells were seeded at a density of 1.5×10^5 cells/cm^2 on tropoelastin-coated wells in the presence of 0-0.5 mM cation (Mg^2+, Ca^2+ or Mn^2+) and incubated for 45 min at 37° C. Bound cells were fixed and stained, and cell attachment was quantified as previously described."}, "MSCs [5]": {"test_system": "MSCs", "test": "Cell migration via haptotaxis", "conditions": "5 days post-seeding", "method": "Polydimethylsiloxane (PDMS) was casted into 3D printed molds to create a circular shape with three rectangular cutouts, in which the middle rectangle was equidistant from the flanking rectangles. The PDMS stencil was placed inside a well plate and pressed tightly against the well surface to create watertight seal. The top and bottom rectangular chambers were filled with tropoelastin solution (20 μg/mL) or PBS, respectively, and air dried overnight. MSCs (1.2×10^6 cells/cm^2) were seeded into the middle chamber and allowed to attach for at least 2 hrs. The PDMS stencil was removed, and the culture well was covered with normal media. For up to 5 days, cells were stained daily with NucBlue™ Live ReadyProbes™ Reagent (Life Technologies) for 15 min, washed once with PBS, covered with normal media, and imaged under fluorescence at 360/460 nm using a Nikon Ti-E Live Cell Microscope. Cell migration into regions defined by tropoelastin or PBS coating was quantified via relative fluorescent areas using ImageJ software."}, "[6]": {"conditions": "TE days 2-5, 3-6 or 4-7 of 7-day proliferation period"}, "[7]": {"conditions": "tropoelastin addition during MSC expansion"}, "[8]": {"conditions": "tropoelastin addition during differentiation"}, "[9]": {"conditions": "tropoelastin during both expansion and differentiation stages"}},
  "data": [
    {"molecule": "recombinant human tropoelastin (Elastagen) (ligand, UniProt P15502-2 27-724, looked up) GGVPGAIPGGVPGGVFYPGAGLGALGGGALGPGGKPLKPVPGGLAGAGLGAGLGAFPAVTFPGALVPGGVADAAAAYKAAKAGAGLGGVPGVGGLGVSAGAVVPQPGAGVKPGKVPGVGLPGVYPGGVLPGARFPGVGVLPGVPTGAGVKPKAPGVGGAFAGIPGVGPFGGPQPGVPLGYPIKAPKLPGGYGLPYTTGKLPYGYGPGGVAGAAGKAGYPTGTGVGPQAAAAAAAKAAAKFGAGAAGVLPGVGGAGVPGVPGAIPGIGGIAGVGTPAAAAAAAAAAKAAKYGAAAGLVPGGPGFGPGVVGVPGAGVPGVGVPGAGIPVVPGAGIPGAAVPGVVSPEAAAKAAAKAAKYGARPGVGVGGIPTYGVGAGGFPGFGVGVGGIPGVAGVPGVGGVPGVGGVPGVGISPEAQAAAAAKAAKYGVGTPAAAAAKAAAKAAQFGLVPGVGVAPGVGVAPGVGVAPGVGLAPGVGVAPGVGVAPGVGVAPGIGPGGVAAAAKSAAKVAAKAQLRAAAGLGAGIPGLGVGVGVPGLGVGAGVPGLGVGAGVPGFGAVPGALAAAKAAKYGAAVPGVLGGLGALGGVGIPGGVVGAGPAAAAAAAKAAAKAAQFGLVGAAGLGGLGVGGLGVPGVGGLGGIPPAAAAKAAKYGAAGLGGVLGGAGQFPLGGVAARPGFGLSPIFPGGACLGKACGRKRK", "values": [
      {"measurement": "effect on chondrogenic differentiation", "setting": "MSCs [1]; TE added during the induction stage", "result": "inhibited chondrogenic differentiation"},
      {"measurement": "pro-chondrogenic effects versus timing of exposure during expansion", "setting": "MSCs [1]; [6]", "result": "observed only when tropoelastin was present in the early stages of expansion"},
      {"measurement": "concentration during induction stage that significantly inhibited chondrogenic differentiation", "setting": "MSCs [1]; TE present during induction", "result": "≥ 2", "unit": "µg/mL"},
      {"measurement": "glycosaminoglycan production", "setting": "MSCs [1]; expanded in 20 μg/ml TE, induced in the absence of TE", "result": "highest extent of glycosaminoglycan production"},
      {"measurement": "glycosaminoglycan levels compared to cells expanded without TE", "setting": "MSCs [1]; expanded in presence of TE, TE not present during differentiation", "result": "increased glycosaminoglycan levels"},
      {"measurement": "increased chondrogenesis compared to cells exposed from days 4-7", "setting": "MSCs [1]; exposed days 2-5 of expansion period", "result": 71, "unit": "%"},
      {"measurement": "improved chondrogenesis", "setting": "MSCs [1]; [7]", "result": 134, "unit": "%"},
      {"measurement": "decreased MSC chondrogenesis", "setting": "MSCs [1]; cells expanded with tropoelastin", "result": 80, "unit": "%"},
      {"measurement": "decreased MSC chondrogenesis", "setting": "MSCs [1]; cells expanded without tropoelastin", "result": 63, "unit": "%"},
      {"measurement": "intracellular lipid formation", "setting": "MSCs [2]; 20 μg/ml TE during both expansion and induction stages", "result": "increase in intracellular lipid formation"},
      {"measurement": "intracellular lipid formation compared to culture lacking TE", "setting": "MSCs [2]; induced in the presence of TE", "result": "increase in intracellular lipid formation"},
      {"measurement": "increased adipogenesis", "setting": "MSCs [2]; [7]", "result": 33, "unit": "%"},
      {"measurement": "increased adipogenesis", "setting": "MSCs [2]; [8]", "result": 19, "unit": "%"},
      {"measurement": "promoted adipogenesis", "setting": "MSCs [2]; [9]", "result": "69-85%"},
      {"measurement": "osteogenesis versus timing of exposure during expansion", "setting": "MSCs [3]; [6]", "result": "maximum effect associated with tropoelastin exposure in the later stages of expansion"},
      {"measurement": "increased osteogenesis compared to cells grown on TCP", "setting": "MSCs [3]; cells grown on coating", "result": 113, "unit": "%"},
      {"measurement": "mineralized calcium", "setting": "MSCs [3]; cells induced and exposed to TE", "result": "increase in mineralized calcium concentrations"},
      {"measurement": "MSC osteogenesis with tropoelastin added to hyaluronic acid", "setting": "MSCs [3]; different molecular weight hyaluronic acid formulations", "result": "promoted MSC osteogenesis"},
      {"measurement": "increased osteogenesis compared to cells exposed from days 2-5", "setting": "MSCs [3]; exposed days 4-7 of seven-day expansion", "result": 24, "unit": "%"},
      {"measurement": "osteogenesis dose response", "setting": "MSCs [3]; grown in at least 2 μg/mL TE and induced in 20 μg/mL TE", "result": "Maximum osteogenesis"},
      {"measurement": "improved osteogenesis", "setting": "MSCs [3]; [8]", "result": 55, "unit": "%"},
      {"measurement": "increased osteogenesis", "setting": "MSCs [3]; [9]", "result": "up to 131%"},
      {"measurement": "improved osteogenic potential", "setting": "MSCs [3]; tropoelastin present during MSC expansion", "result": 42, "unit": "%"},
      {"measurement": "MSC adhesion to tropoelastin", "setting": "MSCs [4]", "result": "20.0±2.1", "unit": "%"},
      {"measurement": "more cells migrated to the tropoelastin-coated region compared to the control", "setting": "MSCs [5]", "result": "45±8", "unit": "%"}
    ]}
  ]
}
